Experimental findings from patent publication US20140073768A1 are described below.

One assay deals with extracellular region of human V158 FcγRIIIa, C-terminal 6xHis-tag and GST-tag (human) (UniProt P08637). Kind of assay: SPR. (In SPR one partner is held on a chip, and binding of the other changes the refractive index at the surface.)
Turning to alemtuzumab E258H (antibody), the Fold WT amounted to 5.5 fold.
The substance alemtuzumab E258Y (antibody) showed a Fold WT of 1.77 fold.
The same measure, in the same setting: the value for alemtuzumab E272H (antibody) was 384 fold.
On the same count and under the same terms, the value for alemtuzumab E272R (antibody) was 1.38 fold; that for alemtuzumab E283H (antibody) was 2.31 fold; that for alemtuzumab E283L (antibody) was 2.56 fold.
Same read-out and setting: the value for alemtuzumab H268D (antibody) was 5.66 fold; that for alemtuzumab K246H (antibody) was 22.4 fold; that for alemtuzumab K246Y (antibody) was 7.07 fold.
alemtuzumab R255Y (antibody) registered a Fold WT of 1.41 fold.
alemtuzumab S267E (antibody): the Fold WT was found to be 2.62 fold.
Same read-out and setting: the value for alemtuzumab S304T (antibody) was 12.8 fold; that for alemtuzumab T260H (antibody) was 1.86 fold; that for alemtuzumab V284E (antibody) was 1.51 fold.

The next assay deals with extracellular region of human F158 FcγRIIIa, C-terminal 6xHis-tag and GST-tag (human) (UniProt P08637). Kind of assay: SPR, receptor immobilized, antibody flowed over.
As to alemtuzumab, wild type (antibody), the Kd worked out at 0.73 µM.

For another assay, the target named is extracellular region of human V158 FcγRIIIa, C-terminal 6xHis-tag and GST-tag (human) (UniProt P08637). Briefly: SPR, receptor immobilized, antibody flowed over.
alemtuzumab, wild type (antibody) had a Kd of 0.068 µM.

For another assay, the target named is FcγRIIIa on human PBMCs expressing heterozygous V158/F158 FcγRIIIa (human) (UniProt P08637). Kind of assay: cell-based or functional assay.
The substance alemtuzumab S239D/I332E (antibody) displayed an ADCC EC50, DoHH-2 targets, PBMCs of 3 ng/mL and an ADCC log(EC50), DoHH-2 targets, PBMCs of 0.49.
For alemtuzumab V264I/I332E (antibody) the same measures were 4 ng/mL and 0.6.

As a reminder, the Kd is the constant that tells how readily two partners part at equilibrium. A low value points to higher affinity.
